Results reported in the supplement of paper PMC10126150.
± gives the standard deviation of the averaged measurements.

System: ATP
Test: switch fluorescence ratio, 500 uM ATP over buffer (Cy3 cluster intensity, sum of 5 cycles each) (fold (ratio)); higher = stronger signal-on switching upon ATP binding; sequences stand for … in TCGTCGGCAGCGTCAGATGTGTATAAGAGACAGTTTTTTTTTTTTTTTTTTTTTTTTT…TC
Settings: aptamer strand: ATP DNA aptamer (quencher-CACCTGGGGGAGTATTGCGGAGGAAGG + anchor), 100 nM annealed; ATP concentration: 500 uM
How it was run: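 After annealing to 100 nM quencher-labelled ATP aptamer, Cy3-labelled switching-strand clusters on a modified Illumina MiSeq flow-cell were imaged in selection buffer. A second image followed after 15 min with 500 uM ATP at 22 °C, and five such buffer/ATP cycles were done, each separated by NaOH stripping and re-annealing. The fluorescence ratio, averaged per switch-domain sequence, is summed target-cycle over summed buffer-cycle Cy3 intensity per cluster, with clusters outside 100-1000 RFU excluded.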
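Further: ATP exposure 15 min at 22 °C before imaging.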

Row | Sequence | switch fluorescence ratio
1 | TTTGATTGGG | 1.01 ± 0.037
2 | TTTGATTGTT | 0.97 ± 0.043
3 | TTTGCAAAAA | 1.06 ± 0.082
4 | TTTGCAAGGA | 1.02 ± 0.045
5 | TTTGCAATG | 2.22 ± 1.6
6 | TTTGCAGTTC | 1.3 ± 0.32
7 | TTTGCATTCT | 1.004 ± 0.0078
8 | TTTGCCAAAA | 1.14 ± 0.23
9 | TTTGCCGAGG | 1.01 ± 0.015
10 | TTTGCCGTTC | 1.01 ± 0.042
11 | TTTGCCTTGC | 1.11 ± 0.067
12 | TTTGCCTTGG | 1.02 ± 0.018
13 | TTTGCGACGT | 1.02 ± 0.025
14 | TTTGCGACTG | 1.03 ± 0.015
15 | TTTGCGGGAC | 1.57 ± 0.47
16 | TTTGCGGGGG | 1.01 ± 0.035
17 | TTTGCGGGGT | 1.03 ± 0.034
18 | TTTGCGTTAC | 1.58 ± 0.053
19 | TTTGCTACGT | 1.01 ± 0.051
20 | TTTGCTAG | 1.013 ± 0.0095
21 | TTTGCTATAG | 1.23 ± 0.28
22 | TTTGCTGTAT | 0.9747 ± 0.0032
23 | TTTGCTTAAT | 1.02 ± 0.044

Row | Sequence | switch fluorescence ratio
24 | TTTGCTTTCT | 1.02 ± 0.023
25 | TTTGCTTTTC | 0.994 ± 0.05
26 | TTTGCTTTTT | 1 ± 0.036
27 | TTTGGAAAGG | 0.977 ± 0.046
28 | TTTGGAAAGT | 0.991 ± 0.025
29 | TTTGGAATCG | 1.01 ± 0.046
30 | TTTGGACAGG | 1.004 ± 0.0071
31 | TTTGGAGAAA | 0.989 ± 0.022
32 | TTTGGAGGCT | 1.02 ± 0.063
33 | TTTGGAGTTT | 0.987 ± 0.053
34 | TTTGGATATT | 1.03 ± 0.095
35 | TTTGGATCTG | 1.034 ± 0.0094
36 | TTTGGCAGTC | 1.1 ± 0.13
37 | TTTGGCCGGA | 0.985 ± 0.036
38 | TTTGGGAATA | 1.02 ± 0.02
39 | TTTGGGAATT | 1.03 ± 0.035
40 | TTTGGGACAG | 0.981 ± 0.031
41 | TTTGGGAGGC | 1.01 ± 0.034
42 | TTTGGGATT | 0.999 ± 0.036
43 | TTTGGGCATA | 1.16 ± 0.19
44 | TTTGGGCGCC | 1 ± 0.018
45 | TTTGGGCGCT | 1.04 ± 0.048
46 | TTTGGGCTGT | 1.02 ± 0.021

Row | Sequence | switch fluorescence ratio
47 | TTTGGGGAGA | 1 ± 0.041
48 | TTTGGGGAGT | 1 ± 0.088
49 | TTTGGGGGCC | 1.009 ± 0.0061
50 | TTTGGGTAAG | 1 ± 0.024
51 | TTTGGGTCAA | 1.012 ± 0.0074
52 | TTTGGGTGTT | 1.02 ± 0.046
53 | TTTGGGTTAA | 1.13 ± 0.29
54 | TTTGGTAGAA | 0.996 ± 0.025
55 | TTTGGTCCGG | 1.01 ± 0.029
56 | TTTGGTCCTT | 1.029 ± 0.0088
57 | TTTGGTGCCC | 1.03 ± 0.029
58 | TTTGGTGCTT | 0.974 ± 0.045
59 | TTTGGTGTTT | 1.01 ± 0.035
60 | TTTGGTTATG | 0.982 ± 0.017
61 | TTTGGTTCTT | 1.02 ± 0.033
62 | TTTGGTTGGG | 1.03 ± 0.098
63 | TTTGGTTTTC | 1.02 ± 0.033
64 | TTTGTAAAGG | 0.999 ± 0.013
65 | TTTGTAACCT | 1.74 ± 0.035
66 | TTTGTAGAAC | 1.02 ± 0.036
67 | TTTGTAGAGT | 1.01 ± 0.034
68 | TTTGTAGGAT | 1.04 ± 0.014
69 | TTTGTAGTGT | 0.999 ± 0.026

Row | Sequence | switch fluorescence ratio
70 | TTTGTATAGG | 0.98 ± 0.035
71 | TTTGTATGCA | 1.04 ± 0.057
72 | TTTGTCGATA | 1.05 ± 0.025
73 | TTTGTCGTAT | 0.996 ± 0.014
74 | TTTGTGATAA | 0.969 ± 0.057
75 | TTTGTGCGCA | 1.07 ± 0.08
76 | TTTGTGCTTT | 1.01 ± 0.02
77 | TTTGTGGGAT | 0.998 ± 0.043
78 | TTTGTGGTTC | 1 ± 0.039
79 | TTTGTGTATT | 0.97768 ± 0.00065
80 | TTTGTTAACG | 0.99 ± 0.013
81 | TTTGTTACGG | 0.978 ± 0.046
82 | TTTGTTCACA | 1.06 ± 0.043
83 | TTTGTTCATC | 0.97 ± 0.024
84 | TTTGTTCGTG | 0.96 ± 0.028
85 | TTTGTTGGGC | 0.981 ± 0.028
86 | TTTGTTTAAT | 1.002 ± 0.0012
87 | TTTGTTTAGG | 1.01 ± 0.04
88 | TTTGTTTGCG | 1.03 ± 0.032
89 | TTTGTTTGGT | 0.985 ± 0.036
90 | TTTTAAACTG | 1.1 ± 0.066
91 | TTTTAAAGAG | 0.97 ± 0.024
92 | TTTTAACAAT | 1.021 ± 0.0098

Row | Sequence | switch fluorescence ratio
93 | TTTTAACCCT | 0.998 ± 0.013
94 | TTTTAACGCT | 1.01 ± 0.039
95 | TTTTAACTGG | 0.988 ± 0.034
96 | TTTTAAGAT | 1.02 ± 0.029
97 | TTTTAAGCTG | 1.05 ± 0.024
98 | TTTTAAGTTG | 1.01 ± 0.045
99 | TTTTAATCGT | 0.985 ± 0.063
100 | TTTTACAGAT | 0.975 ± 0.017
101 | TTTTACAGTT | 1.02 ± 0.023
102 | TTTTACCTTT | 1 ± 0.032
103 | TTTTACGAGT | 1.06 ± 0.16
104 | TTTTACGCCT | 1.02 ± 0.012
105 | TTTTACTAGA | 1.032 ± 0.0059
106 | TTTTACTGCT | 1.15 ± 0.18
107 | TTTTACTTGT | 1.025 ± 0.0037
108 | TTTTAGAATG | 1 ± 0.061
109 | TTTTAGGAAG | 0.9937 ± 0.0097
110 | TTTTAGGGAG | 0.992 ± 0.03
111 | TTTTAGGGCA | 1 ± 0.018
112 | TTTTAGGGCC | 0.999 ± 0.05
113 | TTTTAGGTCG | 0.987 ± 0.013
114 | TTTTAGTCGG | 0.9883 ± 0.0092
115 | TTTTAGTGGC | 1.02 ± 0.029

Row | Sequence | switch fluorescence ratio
116 | TTTTAGTGGT | 0.992 ± 0.014
117 | TTTTAGTGTC | 0.998 ± 0.072
118 | TTTTAGTTTA | 1.01 ± 0.031
119 | TTTTAGTTTC | 1.015 ± 0.0022
120 | TTTTATAAGA | 1.05 ± 0.075
121 | TTTTATAAGT | 1.03 ± 0.021
122 | TTTTATAGGA | 0.976 ± 0.006
123 | TTTTATATAA | 1.02 ± 0.039
124 | TTTTATGCTA | 1 ± 0.054
125 | TTTTATGGGG | 0.968 ± 0.031
126 | TTTTATGTTT | 1 ± 0.019
127 | TTTTATTGCT | 0.991 ± 0.036
128 | TTTTATTGGA | 1 ± 0.03
129 | TTTTATTGGG | 0.975 ± 0.031
130 | TTTTATTTCA | 0.991 ± 0.021
131 | TTTTCAAAAT | 1.08 ± 0.13
132 | TTTTCAATGT | 1.04 ± 0.048
133 | TTTTCACCAA | 1.03 ± 0.025
134 | TTTTCAGGGG | 1.03 ± 0.049
135 | TTTTCATAAG | 1 ± 0.011
136 | TTTTCATCTG | 1.03 ± 0.098
137 | TTTTCCAAGA | 1.09 ± 0.1
138 | TTTTCCCGCA | 2.02 ± 0.26

Row | Sequence | switch fluorescence ratio
139 | TTTTCCGCGG | 1.062 ± 0.0077
140 | TTTTCCTGAC | 1.64 ± 0.25
141 | TTTTCCTGGG | 1.03 ± 0.063
142 | TTTTCGCATT | 1.23 ± 0.051
143 | TTTTCGGAGT | 1.01 ± 0.037
144 | TTTTCGGGGT | 0.986 ± 0.025
145 | TTTTCGGGTG | 1.05 ± 0.024
146 | TTTTCGTATT | 0.988 ± 0.012
147 | TTTTCTCTTT | 1.01 ± 0.035
148 | TTTTCTTCTC | 1.03 ± 0.028
149 | TTTTGAAACG | 0.995 ± 0.025
150 | TTTTGAACGT | 1.02 ± 0.043
151 | TTTTGAATTT | 0.996 ± 0.032
152 | TTTTGACTTG | 0.948 ± 0.0044
153 | TTTTGACTTT | 0.998 ± 0.023
154 | TTTTGAGAAA | 0.99 ± 0.028
155 | TTTTGAGACG | 1.09 ± 0.011
156 | TTTTGAGGCA | 1.02 ± 0.027
157 | TTTTGATAAC | 0.97 ± 0.036
